# Measured values reported in the supplement of paper PMC9170038.
# System: MS2 coat protein
# Experiment: apparent KD of MS2 coat protein; higher = weaker reporter binding
# Conditions: Eterna round: R107
# Procedure: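 RNA-MaP round R107: designed RNA switches with theophylline, tryptophan, arginine or FMN aptamers are transcribed on-chip within common flanks. They are titrated with SNAP-549-labelled MS2 coat protein in RNA-MaP buffer (100 mM Tris pH 7.5, 80 mM KCl, 4 mM MgCl2), without ligand or with the indicated ligand. Median apparent KD per design.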
# [1] = input ligand: theophylline 20 uM
# [2] = input ligand: theophylline 2 mM
# [3] = input ligand: tryptophan 2.4 mM
Sequence,apparent KD of MS2 coat protein (input ligand: arginine 13.2 mM) [nM],apparent KD of MS2 coat protein [1] [nM],apparent KD of MS2 coat protein [2] [nM],apparent KD of MS2 coat protein (input ligand: none) [nM],apparent KD of MS2 coat protein [3] [nM]
AACAUGAGGAUCACCCAUGUCCCAUGUGAACGAGGACCGGUACGGCCGCCACUCGACUGAGGCGGCACAUGAGGAUCACCCACAU [whbob_SS_trypto A_2s12],151,207,269,–,–
AACAUGAGGAUCACCCAUGUUGUAAGGGAAGGAGCGCCUAAUCAGGCAGGUAGGUCGCCCAACAUGAGGAUCACCCAUGUUGUAU [Exclusion Arginine A 2],38.9,89.2,66.9,75.3,76.5
AACAUGAGGAUCUUCCUUAAGUGAACUGAAGGAGCGCCAGAUAUGGCAGGUAGGUCGCAGCGAACAUGAGGAUCACCCAUGUUAA [Arg A Ex t3],38.1,33.1,56,29.4,53.7
AACCGAGGCUAUCCACAAAGAAAAUGUGAUACCAGAAUAAUUUUAUUCCCUUGGCAGCAUGACAUGAGGAUCACCCAUGUGUCUU [SSTheo A #5],29.7,39.8,–,–,32.8
AACGUAUACAGAAGGAGCGUGAUUUAUAUUACUCAUUCAUAUACAUGAGGAUCACCCAUGUCACAGGUAGGUCGCUGUAUUCGUA [JR_ExcArginiB_Sub021],76,165,157,153,108
AAGAACCAGACGGCCGCCACUGGCCAGACAGGGUUCAUGGAAACAUGAGGAUCACCCAUGUCUUCCAGGACCGGGUCUGAAGAGG [Esbiisin],8.61,9.86,9.33,8.56,11.3
AAGACAUGAGGAUCACCCAUGUCGUGUGAACGAGGACCGGUACGGCCGCCACUCGUUUGAAAAUAAACGAAUGCGGCCUGGGAAA [Exclusion Tryp A GF1],11.1,13.4,12.3,–,–
AAGACCAGGAGGUGAUCCUAACUGGUCCAACGAGGACCGGUACGGCCGCCACUCGAAUAAACAUGAGGAUCACCCAUGUAAUAAU [T''-M-T'-T-MS2],58.7,101,90.1,–,–
AAGAUAAGUACUGAUACCAGAGACAUGAGGAUCACCCAUGUCAAAUAAUAAUACCUCAGACUCCCUUGGCAGCAGGAUAAAUGAG [Exclusion Theophylline B GF1],10.9,19.9,19.2,11.7,12.1
AAGGACAUGAGGAUCACCCAUGUAGAGGAGCGAGGACCGGUACGGCCGCCACUCGGUGACAUUCGAUAAUGCCGAAUAAGACAUC [theeternabot_sameState_MS2_Trp_A_47],26.8,33.2,24.6,–,–
AAGGGACAUGAGGAUCACCCAUGUACCGAAGGAGCGGCAGAGAUGCCAGGUAGGUCGCGGUACUUGCCGGGUCAUUCAUGCAAAA [Teanbe],16.4,23.5,21.9,18.8,21.8
AAGGGAGAGUCAGAUACCAGAGUAAGAUGGCAUGGUAAUUACAUGAGGAUCACCCAUGUAUUCCCUUGGCAGCUGACCCUACGUU [Exclusion Theophylline B GF 19],17.6,16.7,16.6,14.1,12.8
AAUAACAUGAGGAUCACCCAUGUAAAAGAUACCAGAUGCAUGAUGAUCCCUUGGCAGCUUAAAACGCGAUUGGAAACAAUCGCGA [Mat - Same State Theophlline A - Mod of Eli - D13],46.1,93.4,–,–,30.8
AAUAACAUGAGGAUCACCCAUGUAAGUAAACGAGGACCGGUACGGCCGCCACUCGAAUAAAUAAAGUACCGGUAAGAUCCAUAGA [Default title],17.9,25.9,22.5,–,–
AAUAUAAGUGUAAUUAUAUUUAUAUCUGAUACCAGACUCUCAUGUGUCCCUUGGCAGCAGUUACAUGAGGAUCACCCAUGUAUUA [JR_Nu_SSTheophyA_Sub025],30.6,67.6,–,–,73.7
AAUAUAAUAGACUCGUUUUAGUAUUUGGAACGAGGACCGGUACGGCCGCCACUCGUGAUUUACAUGAGGAUCACCCAUGUUAGCA [JR_SSTryptoA_Sub003],15.5,18.4,17.5,–,–
AAUAUAUAGACGGCCGCCACUGGAAUUAAUACAUGAGGAUCACCCAUGUGAAGAGGAUAAUAACACAGGACCGGGUCUUCAUGUA [SS Tryp B Tesla 1.2],68.5,137,452,37.4,138
AAUCGUAAGGCGGCCGCCACUACACAUGAGGAUCACCCAUGUCUCGCAGGCUUGCGUUGGGUUAGUAGGACCGGGCCAGUAAUAA [Exclusion - Tryptophan B (Freestyle 15)],25.8,43.2,37,32.1,34.5
